Experimental data: the supplement of paper PMC10567573

B1: WEE1 (parent)
chain: FISRTSIPNAASEEGDEDDWASNK

Variants of: B1
Assay: protein stability index of a GFP-peptide fusion (GPS, HEK-293T) (PSI 1-6); higher = more stable
Details: c terminus: a fixed tail appended
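Further: lentivirally expressed fusions sorted by FACS into six bins by GFP to DsRed ratio, PSI derived from sequencing read proportions per bin multiplied by bin number.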

Protein stability index of substitutions, site by site:
K24: T 4.12; M 3.82; I 4.12; F 4.04; S 4.53; W 2.94; Q 4.46; G 4.01; P 4.54; V 3.58; H 3.91; N 4.23; L 4.04; Y 3.94; R 3.08
